Results from patent US20130052132A1, “Method for Producing Radioactively Labeled Polypeptide” (priority 2011, published 2013).
* marks the point of attachment. Benzoyl(3-I) = O=C(c1cccc(I)c1)*

Legend:
[1] = target: T1, GLP-1R of the pancreatic β-cells (Mus musculus, UniProt O35659); test: Two-dimensional imaging analysis of pancreas sections (fluorescence and autoradiography); type: in vivo, MIP-GFP mouse; details: MIP-GFP mice
T1 construct: the pancreas was dissected out of the mouse; from tissue; host or cells: pancreas sections of MIP-GFP mice after intravenous dosing
T1 sequence (O35659 22-463): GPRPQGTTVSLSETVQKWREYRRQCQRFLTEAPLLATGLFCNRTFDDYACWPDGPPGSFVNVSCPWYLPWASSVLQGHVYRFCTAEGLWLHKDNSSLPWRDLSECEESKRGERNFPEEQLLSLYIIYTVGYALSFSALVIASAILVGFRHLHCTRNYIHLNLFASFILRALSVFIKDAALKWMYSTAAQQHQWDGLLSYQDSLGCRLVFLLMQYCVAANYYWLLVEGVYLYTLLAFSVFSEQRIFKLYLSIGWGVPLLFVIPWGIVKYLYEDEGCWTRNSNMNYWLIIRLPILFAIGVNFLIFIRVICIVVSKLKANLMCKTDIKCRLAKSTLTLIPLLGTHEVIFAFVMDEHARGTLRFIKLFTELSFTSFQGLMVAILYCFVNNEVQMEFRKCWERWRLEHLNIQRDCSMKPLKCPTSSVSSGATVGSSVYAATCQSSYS
Method: The polypeptide of Example 1 (5 μCi/100 μl) was administered to an unanesthetized MIP-GFP mouse (male, weight: 20 g) by intravenous injection, and after 30 minutes and 60 minutes from the administration, the pancreas was dissected out of the mouse (n=1). Sections were cut out of the dissected pancreas, and each section was placed on a slide glass, covered with a cover glass. The fluorescence and radioactivity (autoradiography) of each section were determined using an image analyzer (trade name: Typhoon 9410, manufactured by GE Health Care Inc.) (exposure time: 18 hours). The exemplary results are shown in lanes 1, 4 and 5 of FIG. 2. […] After 30 minutes from the preliminary administration, the polypeptide of Example 1 (5 μCi/100 μl) was administered to the mice by intravenous injection, and after 30 minutes and 60 minutes from the administration of the polypeptide, the pancreases were dissected out of the mice (n=2). Sections were cut out of the dissected pancreases, and the fluorescence and radioactivity of each section were determined in the same manner as above. […] FIG. 4 illustrates exemplary results of the imaging analysis of pancreas sections of MIP-GFP mice to which the polypeptide of Example 2 was administered. The images on the upper row show a fluorescence signal and those on the lower row show a radioactivity signal of the polypeptide represented by the formula (20). […]

[2] = design: species or system ddY mice; details: mouse
Method: After 5 minutes, 15 minutes, 30 minutes, 60 minutes, and 120 minutes from the administration, organs were dissected out of the mice (n=5). The weight and radioactivity of each organ were determined, and an accumulation amount (% dose/g) of the polypeptide of Example 1 was calculated from the radioactivity per unit weight. FIG. 1 is a graph showing, by way of example, how the accumulation of the polypeptide of Example 1 in each organ changed over time. Table 2 provides the ratio of pancreas/liver (accumulation amount in pancreas/accumulation amount in liver), the ratio of pancreas/kidney (accumulation amount in pancreas/accumulation amount in kidney), and the ratio of pancreas/blood (accumulation amount in pancreas/accumulation amount in blood) based on the accumulation amount of the polypeptide of Example 1 in each organ. The polypeptide of Example 2 (0.51 μCi) was administered to unanesthetized 6-week-old ddY mice (male, weight: 30 g) by intravenous injection (through the tail vein). After 5 minutes, 15 minutes, 30 minutes, 60 minutes, and 120 minutes from the administration, organs were dissected out of the mice (n=5). The weight and radioactivity of each organ were determined, and an accumulation amount (% dose/g) of the polypeptide of Example 2 was calculated from the radioactivity per unit weight. FIG. 3 is a graph showing, by way of example, how the accumulation of the polypeptide of Example 2 in each organ changed over time. Table 4 provides the ratio of pancreas/liver, the ratio of pancreas/kidney, and the ratio of pancreas/blood based on the accumulation amount of the polypeptide of Example 2 in each organ. A biodistribution experiment was performed by following the same procedure as in Example 1 except that the polypeptide of Example 4 (0.61 μCi) was used in place of the polypeptide of Example 1. FIG. 6 is a graph showing, by way of example, how the accumulation of the polypeptide of Example 4 in each organ changed over time. […]

[3] = target: T2, GLP-1R (glucagon-like peptide-1 receptor) of mouse pancreatic islet cells (mouse, UniProt O35659 22-463); test: displacement of [125I]Bolton-Hunter labeled exendin(9-39) from mouse pancreatic islet cells, filter separation, gamma counter
T2 construct: whole, on cells; also called GLP-1R of pancreatic beta-cells
T2 sequence: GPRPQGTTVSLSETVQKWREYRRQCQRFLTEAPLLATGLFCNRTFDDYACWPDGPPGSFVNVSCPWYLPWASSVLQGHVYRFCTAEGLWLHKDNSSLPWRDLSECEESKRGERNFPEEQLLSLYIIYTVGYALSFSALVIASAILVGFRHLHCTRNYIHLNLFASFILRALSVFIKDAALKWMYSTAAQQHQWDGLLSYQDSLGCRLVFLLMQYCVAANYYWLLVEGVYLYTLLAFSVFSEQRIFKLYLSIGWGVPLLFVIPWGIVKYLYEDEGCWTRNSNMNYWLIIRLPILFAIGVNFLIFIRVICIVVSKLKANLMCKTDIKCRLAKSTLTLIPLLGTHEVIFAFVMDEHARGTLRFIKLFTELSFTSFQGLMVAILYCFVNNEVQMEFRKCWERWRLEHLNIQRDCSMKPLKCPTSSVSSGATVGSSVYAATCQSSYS

Molecule | localization of the radioactivity signal in pancreas sections ([1]; 30 and 60 minutes after intravenous injection, compared with GFP signal) | radioactivity signal in pancreas sections after blocking the receptors ([1]; preliminary administration of cold probe non-labeled exendin(9-39) 50 μg 30 minutes before) | deiodization metabolism in vivo [2] | accumulation in the pancreas ([2]; in vivo) | ratio of pancreas/kidney in the accumulation amount ([2]; in vivo) | IC50 [3] [nM]
Example 1 (DLSKQMEEEAVRLFIEWLRNGGPSSGAPPPS; A polypeptide produced in Production Example 1) | substantially consistent with that of the GFP signal | hardly detected | not subjected to deiodization metabolism in vivo | exceeding 15 % dose/g | ≥ 1 | –
Ac-DLSK(Benzoyl(3-I))QMEEEAVRLFIEWLRNGGPSSGAPPPS-NH2 (SMILES CC[C@H](C)[C@H](NC(=O)[C@H](Cc1ccccc1)NC(=O)[C@H](CC(C)C)NC(=O)[C@H](CCCNC(=N)N)NC(=O)[C@@H](NC(=O)[C@H](C)NC(=O)[C@H](CCC(=O)O)NC(=O)[C@H](CCC(=O)O)NC(=O)[C@H](CCC(=O)O)NC(=O)[C@H](CCSC)NC(=O)[C@H](CCC(N)=O)NC(=O)[C@H](CCCCNC(=O)c1cccc(I)c1)NC(=O)[C@H](CO)NC(=O)[C@H](CC(C)C)NC(=O)[C@H](CC(=O)O)NC(C)=O)C(C)C)C(=O)N[C@@H](CCC(=O)O)C(=O)N[C@@H](Cc1c[nH]c2ccccc12)C(=O)N[C@@H](CC(C)C)C(=O)N[C@@H](CCCNC(=N)N)C(=O)N[C@@H](CC(N)=O)C(=O)NCC(=O)NCC(=O)N1CCC[C@H]1C(=O)N[C@@H](CO)C(=O)N[C@@H](CO)C(=O)NCC(=O)N[C@@H](C)C(=O)N1CCC[C@H]1C(=O)N1CCC[C@H]1C(=O)N1CCC[C@H]1C(=O)N[C@@H](CO)C(N)=O, Non-radioactive exendin(9-39) derivative with Arg in place of Lys at position 19; Formula (11) itself is a drawing; also called cold probe) [polypeptide represented by the formula (11)] | – | – | – | – | – | 32.1
